Assay results reported in the supplement of paper PMC10724198.
± gives the standard deviation of the averaged measurements.

Tested on: Saccharomyces cerevisiae
Test: protein stability index of tFT-peptide fusion (C-terminal peptide) (PSI (0-1 scale)); higher = more stable (slower turnover)
Settings: genetic background: wild type; temperature: 30 C
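Also: PSI is a weighted mean of sequencing reads over stability bins, variants kept only with over 10 reads, mCherry proximal and sfGFP distal, peptide attached via GGGS linker.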

SSPFPVPLSRPS
protein stability index: 0.6759 ± 0.0032

GGGGRGLLDVGV
protein stability index: 0.689 ± 0.031

WCPVHGSGGAPL
protein stability index: 0.674 ± 0.026

RGKSPPPSSPPL
protein stability index: 0.684 ± 0.024

ASLLLVFSPPIS
protein stability index: 0.703 ± 0.043

VGHVVVRLWPHE
protein stability index: 0.665 ± 0.013

HIWQEADGMDTE
protein stability index: 0.679 ± 0.022

VAVRCVLWEGFS
protein stability index: 0.76 ± 0.084

LGGEVDLGPARG
protein stability index: 0.662 ± 0.092

GREGKHLGAPPS
protein stability index: 0.68 ± 0.032

QTVPGKNLDGDL
protein stability index: 0.714 ± 0.013

NSGKPWTLGRQE
protein stability index: 0.701 ± 0.043

NRCGGACGRQAG
protein stability index: 0.711 ± 0.027

SPAPALFCPARF
protein stability index: 0.739 ± 0.022

IFWGFSFRGWGC
protein stability index: 0.683 ± 0.015

DQVDGLFTCSAR
protein stability index: 0.739 ± 0.027

TPSIFNRTNGPK
protein stability index: 0.738 ± 0.043

GGELRPKGVRGV
protein stability index: 0.656 ± 0.046

PFPPSAAPPLPF
protein stability index: 0.593 ± 0.068

GLRRWLSTAMRR
protein stability index: 0.7339 ± 0.0033

SSRVALRIPGIG
protein stability index: 0.678 ± 0.024

LPPSPLMTRTCA
protein stability index: 0.6343 ± 0.0041

LRDYLLWRECTL
protein stability index: 0.692 ± 0.033

LLHWGRWRRGRR
protein stability index: 0.722 ± 0.046

TLPDSSSTSPNL
protein stability index: 0.696 ± 0.063

TKIPVLLKNSAN
protein stability index: 0.704 ± 0.062

VSNVSGKEYINV
protein stability index: 0.681 ± 0.038

GGGLAPADQVGV
protein stability index: 0.729 ± 0.043

AGALYGNPCPPL
protein stability index: 0.657 ± 0.019

GPSRKCPFDVVS
protein stability index: 0.6654 ± 0.0021

PHTPARSLPPSR
protein stability index: 0.6473 ± 0.0047

KVMTEARTPALS
protein stability index: 0.702 ± 0.027

PPPPPGLAPPSP
protein stability index: 0.681 ± 0.011

NRNSHSGKIKLK
protein stability index: 0.691 ± 0.049

SLVLFRSCSFFS
protein stability index: 0.669 ± 0.024

LAWFDLAPSTLP
protein stability index: 0.827 ± 0.14

DGRYVDSEIDNP
protein stability index: 0.714 ± 0.059

FCEASSSSRISA
protein stability index: 0.744 ± 0.088

PVRCSDLDLTFL
protein stability index: 0.774 ± 0.054

GSFVEEVFRVKS
protein stability index: 0.6646 ± 0.0061

TVVVGHSRLVVG
protein stability index: 0.703 ± 0.027

RRKSEYAYNTKN
protein stability index: 0.565 ± 0.036

CRRSSRIKHILL
protein stability index: 0.603 ± 0.029

GDRYFGTPAPSH
protein stability index: 0.757 ± 0.021

VSGFPHASSSPT
protein stability index: 0.6225 ± 0.0052

MLLLWRVPQCGE
protein stability index: 0.638 ± 0.055

WYKIQILDPNVG
protein stability index: 0.749 ± 0.011

PLLGPSCLRPPS
protein stability index: 0.791 ± 0.17

PPAPPSPPHPPL
protein stability index: 0.7133 ± 0.0036

LRVNGIVTVSGF
protein stability index: 0.749 ± 0.13

GGRSGGWCGCWG
protein stability index: 0.711 ± 0.032

PPLPPPPRSPPS
protein stability index: 0.7565 ± 0.0021

PHPPLPPPPPPP
protein stability index: 0.702 ± 0.018

VWGGVICFGLWM
protein stability index: 0.579 ± 0.02

TILKLLSEELDK
protein stability index: 0.613 ± 0.025

PSPTTSRFAPPP
protein stability index: 0.53 ± 0.047

SFHRICTYVLRP
protein stability index: 0.634 ± 0.089

LVGRVGAVAGPA
protein stability index: 0.691 ± 0.028

LHPPTHPQLPSS
protein stability index: 0.7214 ± 0.0059

LSHLILPPSSPS
protein stability index: 0.677 ± 0.013

YLFPFLCFSPPP
protein stability index: 0.702 ± 0.072

GRVGGRSGGRGR
protein stability index: 0.68 ± 0.013

PFIAHSACAALN
protein stability index: 0.604 ± 0.011

DKHGELFIVCKV
protein stability index: 0.54 ± 0.033

ESKRKLHSSRYS
protein stability index: 0.6875 ± 0.0032

ICLPPVSDVLIR
protein stability index: 0.676 ± 0.0084

PPPPASARPSLP
protein stability index: 0.477 ± 0.069

PPTHHRALRPSA
protein stability index: 0.687 ± 0.026

SPGSSPPLLSPH
protein stability index: 0.761 ± 0.013

YSCDEDPVTVRG
protein stability index: 0.699 ± 0.036

GGVVGGRAGRGG
protein stability index: 0.617 ± 0.033

TYIRRTICGVLS
protein stability index: 0.587 ± 0.021

PSPTRPPAYPRS
protein stability index: 0.672 ± 0.11

VAHSPLPLILPI
protein stability index: 0.629 ± 0.041

PPDSSPLGGEVG
protein stability index: 0.6775 ± 0.0058

GTPNLTEEPPHQ
protein stability index: 0.761 ± 0.034

SYSPRRRLNTPR
protein stability index: 0.699 ± 0.058

LRRPAFCAFTST
protein stability index: 0.715 ± 0.024

GRRCKNMKKMSW
protein stability index: 0.674 ± 0.046

TFALAPLPPLPS
protein stability index: 0.68 ± 0.032

YRKGWRREVGGG
protein stability index: 0.699 ± 0.011

WIFRDHVLRRFP
protein stability index: 0.661 ± 0.024

GKMLSRPRKTEN
protein stability index: 0.711 ± 0.03

LGPSPQRLRYPT
protein stability index: 0.65 ± 0.035

PSGSVLAEGRGP
protein stability index: 0.678 ± 0.077

RGVGEGFRAGCG
protein stability index: 0.672 ± 0.0098

TPRTRPFNPPPR
protein stability index: 0.729 ± 0.023

SCSHYLPAPLPF
protein stability index: 0.577 ± 0.0074

WAVGLNPSGLGT
protein stability index: 0.651 ± 0.063

SLGSTHRWPPVV
protein stability index: 0.6272 ± 0.0019

LVPSPLIFPSLG
protein stability index: 0.783 ± 0.012

APPPPAVPHYRP
protein stability index: 0.667 ± 0.012

YRLDTFCPHFSN
protein stability index: 0.752 ± 0.13

IKTQKNKQITKI
protein stability index: 0.705 ± 0.071

VSIVTLSLSNFA
protein stability index: 0.611 ± 0.0072

PPPCPHRDGTSP
protein stability index: 0.664 ± 0.05

YTRGVENTDMAP
protein stability index: 0.768 ± 0.022

ALVTLRRVVDLV
protein stability index: 0.601 ± 0.08

TKKKNKLRNKQE
protein stability index: 0.664 ± 0.048

IETQKNNKLRRL
protein stability index: 0.699 ± 0.015

SPSRPILRPRVV
protein stability index: 0.635 ± 0.02
